In publication PMC9901172 one finds Kd data, which are given here for 1 substance.

Assay [1] concerns the target Kap114•XFD488-H2A-H2B complex (yeast | frog) (UniProt P53067). Description: fluorescence polarisation.
Assay [2] deals with Imp9•XFD488-H2A-H2B complex (human | frog) (UniProt Q96P70). Description: fluorescence polarisation. Background: Fluorescence polarisation rises when a labelled molecule tumbles more slowly, as on binding a larger partner.

On to “yeast RanGTP (Saccharomyces cerevisiae Gsp1 residues 1-179 with Q71L) (from UniProt P32835 1-179) (domain or fragment)”, for which the Kd (in general, the constant that tells how readily two partners part at equilibrium) in assay [1] was found to be 270 nM; in assay [2], 150 nM.
